Earlier results in PMC2742733.

Target: TEM-8 (Homo sapiens) (UniProt Q9H6X2)

## Protective antigen (PA) (from UniProt P13423)
  Kd: 130 nM
